Test: label from the status in PepcDB records

With “MALNNFLTFQLLLLLLRVSSESPWIVAGDVSRIPINFLELAKSPEVFDSMVRIRRKIHENPELGYEEFETSKFIRSELDLIGVKYRFPVAITGIIGYIGTGEPPFVALRADMDALPIQEAVEWEHKSKNPGKMHACGHDGHVAMLLGAAKILQQHRQHLQGTVVLIFQPAEEGLSGAKMMREEGALKNVEAIFGIHLSPRTPFGKAASLAGSFMAGAGAFEAVITGKGGHAAIPQHTIDPVVAASSIVLSLQHLVSRETDPSDSKVVTVTKVNGGNAFNVIPDSITIGGTLRAFTGFTQLQERIKEIITKQAAVHRCNASVNLAPNGNQPMPPTVNNMDLYKKFKKVVRDLLGQEAFVEAVPEMGSEDFSYFAETIPGHFSLLGMQDETQGYASSHSPHYRINEDVLPYGAAIHATMAVQYLKDKASKGSVSGFHDEL” as the sequence, how does the protein production read?
The protein production was “not failed”.

With “MALNVAPVRDTKWLTLEVCRQFQRGTCSRSDEECKFAHPPKSCQVENGRVIACFDSLKGRCSRENCKYLHPPTHLKTQLEINGRNNLIQQKTAAAMLAQQMQFMFPGTPLHPVPTFPVGPAIGTNTAISFAPYLAPVTPGVGLVPTEILPTTPVIVPGSPPVTVPGSTATQKLLRTDKLEVCREFQRGNCARGETDCRFAHPADSTMIDTSDNTVTVCMDYIKGRCMREKCKYFHPPAHLQAKIKAAQHQANQAAVAAQAAAAAATVMAFPPGALHPLPKRQALEKSNGTSAVFNPSVLHYQQALTSAQLQQHAAFIPTVPMMHSATSATVSAATTPATSVPFAATATANQIILK” as the sequence, how does the protein production read?
Its protein production is “not failed”.

For “MALPASTPPRAKKRFAWIRTLRWYWWLLLFILLGYGLSHIMHWDDRGLLWLKERFESNEERSASIWLPDYHVEIDAKALPGMEKDEASDLSYNPISKTLFAVMGKNAFLVELTLKGDVLRKIPLVGWSNPEGVAVMNDGLIAITDERQHQLTIVKVTADTTTLNIADFPHYELGTSANKNKGFEGVAWDPRRQQLLLGEERPPALYTWKSDGSNVLKGDKQSLLSRALDMRNLSSLSIDPRTGHMLALSADSHMLLEVDEQGNQVSFMTLLGGMNGLKDTIPRAEGVALDEAGTLYMVSEPNLFYSFRKQ”, which protein production is on record?
Its protein production is “failed”.

Which protein production does the source give for “MALPESESARTEQALGRLVGSLCVVTAQQGELSSAMLASWVSQATFSPPGLTVAVAKERAIESLLHKNSCFVLNILQEGNHLGLMKHFLKPFAPGGDRFADVATETAENGAPILTESLAYLECRVQQRLECGDHWVLYAVTDRGALLKDGVTAVHHRKSGDHYLEHHHHHH” here?
The protein production was “failed”.

Which protein production does the source give for “MALPRPTSPHARGSNRTPAIMRLVLGACVPGLLTLTWLYGPGTLLNLAWASLVALACEAAMLALRKRPPGVFLKDGSALVTALLLAVALPPYAPWWLTLVATFFALVFGKHLYGGLGQNPFNPAMLGYVVALVSFPLEMTRWPSPDSALGLPDSLREFLGLATRPDAWAHATALDVLKTDRSLTVDELFAGNPAFGHLGSAGSEWVNLAFLLGGLFLLWRRLFTWHAPLGMLAGLFAMSLLFWNGSGSDSHGSPLFHLFSGATMLGAFFIVTDPVSGATSNRGRLVFGLGVGVLTYVIRAWGGYPDGVAFAVLLMNLAAPTIDYYTRPRTYGHRKAERGFKAGD” here?
Its protein production is “failed”.

With “MALREMIIDESDDIESYSDQSLCLDKAKELLALIKLPTGLLPLKDMTEVGYNKTKGFVWMRMRSKIEHTFREIGRRVLYDTEITAFVEDRRMRRLTGVKSKELMIWVPVNDIFIKRKILRRSPLLIPPACHEHLKFQHFNVRVDKLKEKRSNQTSLM” as the sequence, how does the protein production read?
The protein production was “failed”.

With “MALRKEDLILIPLVAGVMMGAIDSTIVVLALPTISDDLKAPLSLSIWIILAYLLVAAVSTTQFGRLGDMISRKTIFNSGMAIFTLGSFLCGVSSNIDFLIAFRFVQAAGGSMMQANSGSIIADNFPPNLRGRAYGYTSVGWNSGATLGIVLGGIITTLIGWRYIFYINVPVGIISLYFAIKYIIPGSKKNVKLDVPGVVTLTAALSSIAYAATDFTSHGLETTNETLLSIGFLLLVVFIFLERTNKNALLPFHLFQNRVFNFSIAASFLQSLGYLAVTFIVIMYLQGLRGLTPLDSSLLLVPGYVLGGFTGPIFGKLSDRIGARTPATLGMFLMMIAVLLYMTFNLKTPVYYVIPVSIISGLGSSMFFPANNSAVMASSPAGSYGAASGLLRTMANIGMLGSFVLAITVSTIAIPRYVAFEVFAGVGRLVGGLSASFLTGIHTALEVSFAIIAVGMLFSFVRGKENRSTSTPPRATETTK” as the sequence, how does the protein production read?
The protein production was “failed”.

For “MALRNVPFRSEVLGWDPDSLADYFKKLNYKDCEKAVKKYHIDGARFLNLTENDIQKFPKLRVPILSKLSQEINKNEERRSIFTRKPQVPRFPEETESHEEDNGGWSSFEEDDYESPNDDQDGEDDGDYESPNEEEEAPVEDDADYEPPPSNDEEALQNSILPAKPFPNSNSMYIDRPPSGKTPQQPPVPPQRPMAALPPPPAGRNHSPLPPPQTNHEEPSRSRNHKTAKLPAPSIDRSTKPPLDRSLAPFDREPFTLGKKPPFSDKPSIPAGRSLGEHLPKIQKPPLPPTTERHERSSPLPGKKPPVPKHGWGPDRRENDEDDVHQRPLPQPALLPMSSNTFPSRSTKPSPMNPLPSSHMPGAFSESNSSFPQSASLPPYFSQGPSNRPPIRAEGRNFPLPLPNKPRPPSPAEEENSLNEEWYVSYITRPEAEAALRKINQDGTFLVRDSSKKTTTNPYVLMVLYKDKVYNIQIRYQKESQVYLLGTGLRGKEDFLSVSDIIDYFRKMPLLLIDGKNRGSRYQCTLTHAAGYP”, which protein production is on record?
The protein production was “not failed”.

With “MALTDNTRGALFMALAMASFTANDALTKSVTPYINTGQIMFVRGVMTVVLIYIAARHFGALRPLKTLLRPIIILRCLCEVTAAVLYLTALGLIEFSNASAILQSLPLVVTLGAALFLREPVGWRRWVAIIVGFIGVLVIIRPGPEGFTPGALLVVASLAVTAARDLLTRKMYADVPSLAITVITAFVNMAVGGLLIVPFGGWQPMNFTIVSHLAGSAILVLVGYQAIILSMRTGEISFVAPFRYTGLLWGFMIGVFFFNEKIDSYTIIGAMIVIGSGLYTFYRESLRKRSQMAKRAAATPTAATTVRPASVTKATVTEEAGE” as the sequence, how does the protein production read?
Its protein production is “failed”.

With “MALVLTFLGKGGVGRTTVAIAAAKKLAQAGQRVLVLGQDPSLAWQWGITLSETAQGVEANVDGLLLSSTHLLERGWEKLKEVEAQYLRSPALKNIYGEELGVLPGMDEVLVLNALREYELSGRYDVLIYDGPGNLSTLRMLGIPEIASWYWRRFQKVLADSEVVQTLSPFVQPVASAVLSVNWSPDQMLNHPDGPQNLLQQGKAAIADPNRFAAYLVTSTDSLAQKAAQSYWGGAQQVGVTVKGVIQTPLGNGSLDANLFDPLLIAALPSYNQGNWQPLMDALPNPQAMGSAPRPLEIDVNARQVKVFLPGFDKRQVKLTQSGPELTIEAGDQRRNIDLPGNLRGKGVTGAKFQGGYLIVSFLEHHHHHH” as the sequence, how does the protein production read?
The protein production was “failed”.

Which protein production does the source give for “MAMAVSGAVLSGLGSSFLTGGKRGATALASGVGTGAQRVGRKTLIVAAAAAQPKKSWIPAVKGGGNFLDPEWLDGSLPGDFGFDPLGLGKDPAFLKWYREAELIHGRWAMAAVLGIFVGQAWSGVAWFEAGAQPDAIAPFSFGSLLGTQLLLMGWVESKRWVDFFNPDSQSVEWATPWSKTAENFANYTGDQGYPGGRFFDPLGLAGKNRDGVYEPDFEKLERLKLAEIKHSRLAMVAMLIFYFEAGQGKTPLGALGL” here?
Its protein production is “failed”.

With “MAMSGTYVTDVPLKGSAEKHYKRWRSENHLVPEAIGHLIQGVTVHDGDWDSHGTIKIWNYTRDGKEEVLKERIEMDDENMAVTINGLDGHVMEVLKVYVTTLHFIPESKDGCVCKITMVWEKRTEDSPEPIEFMKFVEQMIAHMDDHILQNQE” as the sequence, how does the protein production read?
The protein production was “failed”.

Which protein production does the source give for “MAMSHLFLSSSPQSSLALRLHSTTQFTLSYSKNNKDCSFQSANEAKVSKRSLLCRAIHMESGHSGEQPKKLNFDNLLRRTKHVWDNSPQPVKEFPWNRAFGNFIQLVLDLAISVVKFLFVPILAVSSISEMSYCAHERKLALVPFPLVIGMVVAGVLQETALKISPRLKEAEVPWHLIAMMMFFTLIKLPGPYYPYWGRLLVPHFANGVLLRALWSMFFWYKKTRNTSGNPLQNHSLETE” here?
Its protein production is “failed”.

With “MAMYIRVKRMKTTYFIQCDPTETVLDVKQKLFALIEQPVNNQRLVLMSTEEVLEDSKSLADQKVENDAVVALTLKKD” as the sequence, how does the protein production read?
The protein production was “not failed”.

With “MANAENNSVSTRSSELYREISQMDDEIMKLVEQINQPIGRPDFGAIEEARKKLTDKRMKLEELSKRMKEVIKEMEETPKR” as the sequence, how does the protein production read?
The protein production was “failed”.

For “MANEGGQDAGDEYFADLDYIEVAEQLKEGYESEVDHSDPDAEEDNGGPDAEDDDDFRPNYHYQRKIKRSSRSGSTQNSSTQSSELDSQERAVINFNPNADLDET”, which protein production is on record?
The protein production was “failed”.

For “MANETPKRRILVIRIDFLGDMLCTTAFLGALKRRWPDAELHVVANRYNASALDGNPDVHAVHTYVYSRQCERNDRPGRMRAFFDRLRLVRRLRRLRFDLVVVPNGGMHRSSIQLARQLGVKDCRWHDADSEFDDRKPEHVASRPMCHEALSGFRLVPELGRNDLDGLALSVHPDRALLDTWYRLLGARAKPRVGLFVSNKATERRWPADRWCDLGRRLAPFADVIVFRDPAVSAGAGADGDAWRDVNARHVAPSSVAELVAAASLLDAIVSADSAPVHLASALGVPVAALFEDRPEKYRRWHPLGVPHMILRAGATVDAIGVDAVERAVLHLLEKAGQADDATGGALPLPDVTLVVPAVGAIVS”, which protein production is on record?
The protein production was “failed”.

For “MANIEYDPERQLFHLHNDTFSYVIQVIRGYLVKRYCGPALDHFSGTAKLEDFSHAFNIQNDAAPYSLTTLPLEYSTLMGGDYRTPAYAVRNGHGQLIGNLKFDHYQILAGNESFNGTLPTARTPHGQTLIITMHDETQTLAVRLKYTIVGDLPVLLKQVEYRNLTDTTLTITHAASLQLDFDDHAYDLITLTGAHLNEAKVTRQPLTPGKKSIGSNYGASGPQGVPATILAAPATNEFAGEALGVTLLWSGNFNYTAQVDQFDNSRLVMGLNPELFAWQLKPGKPFVTPEAAVAYTNDGLNDLSRIFHRFFADHVMPLPRKNLIEYNTWETTYFDVSEAKILAEIPKAEELGVELLVIDDGWFKNRPNDAGQLGDWVPDPAKFPHGLRPVADAIHARGLAFGLWVEPEMISENSELYATHPDWAMQYVGQKPLRSRNQLILDLSQRIVQDHLITVLTNLVRDNHIDYLKWDYNRHFSQPGSPVLPPDQQGEVGYRYTRGLYRVLKTLRDTFPKLLIENCSSGGGRLDGGMIAYTDQTWTSDFTDPVYRMKIMNGFSLFFPLKIFVSHFTASPNLQDARLTPLHTRALLSLVGITGIECPPSQLSPAEAAAVKASFAFYKANRKELQNGLLFRLQPSHVNQDEVCWLITNAAKTKALVLTSVGVTSPIPHYQHVLLHYLDPKLSYQIDNTKNATGLELNHAGVTLPLAHGDFSATLMELTAVTNLPQPTAAPTLEHHHHHH”, which protein production is on record?
Its protein production is “failed”.

Which protein production does the source give for “MANKFSAAVVYAVFSSFALNFFYQPGHVYASGATGAAQVVTELVARISGHNILPISASLILVNAPLFILAWRGIGKQFTVYTVITVVMSSVFIHFIPVTPLTHEPVINAVFGGAIMGFGVGNAMKSGISSGGTDIVSLYMRKKTGRSVGTLAFLVNGVIIFTAGVLFGWEYMLYSLIAIFVNSRVQDAIFTRQKRLQVMIVTKNPELLTKKLVNRFKHGVTILHDAEGGYTHTSQTVLMTVITMYEYQEFKDIIQKYDEHAFVSISENVRVLGKFAEVED” here?
Its protein production is “failed”.

Which protein production does the source give for “MANKVEHRLSEQQMKALTDLPLVFLITHDQSKSWPITHAISWVYAKDETTIRFAIEADSLLVKTLADHPVFTLIFFADQSTYSLTCTDVAAWETTARLPLKVALYEGQIKEVRDILFYGAAVSDRPRVYKTYDEAAAMQLDQQIQDILKG” here?
Its protein production is “not failed”.

Which protein production does the source give for “MANLFSFLFLGTLGWGMSLYLMKILLVSLTPTEIVLYRMAIGAASLFILAKLFKLKTDNIRGLILDGIIVGTFNMTLPFYLTTYAVKTVSSSLASVINGLTPLCTLILGMVFFSSKQKLGVLNLLSIVLGFIGIIIINSDVSIYQGSAVEFIALLATTISYGVTANYFKYHARTKEPILVSAVSAFVSAITMLIFKCATESSINSWGIPQGMNQIIALLWLGIIGSGFCLYLYCSLIQNAGAVFASMITYLMTITGVIMGMIFLHETISHQVMIGCIFIFFSLILVNHAPLLEKILVSISRQISLKSARRYELNQ” here?
Its protein production is “failed”.

— a protein production outcome set (Wang et al. 2014)
